Measured values reported in patent publication US20200165349A1 (Genmab, published 2020).
Where a chain is given by its changes, count along the chain named. Names and notes keep the numbering of the source.

Key:
[1] = biological target: T1, Human CD137 (human, UniProt Q07011 24-255); test: cell-based or functional assay
[2] = biological target: T1, Human CD137; test: cell-based or functional assay; remark: listed apart in the source
[3] = biological target: T1, Human CD137; test: flow cytometry on transfected HEK293T-17 cells, 1 µg/mL antibody
[4] = biological target: T2, African elephant CD137 (African elephant (Loxodonta africana)); test: flow cytometry on transfected HEK293T-17 cells
T2 construct: Amino acids 1-23 are stated to be a predicted signal peptide; Expressed on HEK293T-17 cells; also called Loxodonta africana CD137
T2 chain: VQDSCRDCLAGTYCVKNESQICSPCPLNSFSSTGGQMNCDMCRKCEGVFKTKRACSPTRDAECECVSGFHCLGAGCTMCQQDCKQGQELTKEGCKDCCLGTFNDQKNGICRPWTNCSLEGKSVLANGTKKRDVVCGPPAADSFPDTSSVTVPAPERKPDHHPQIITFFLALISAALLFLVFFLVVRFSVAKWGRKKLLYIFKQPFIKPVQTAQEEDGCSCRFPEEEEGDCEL

[5] = biological target: T3, Human CD137 shuffle 5 (amino acids 48-88 of African elephant CD137) (human with African elephant residues …, UniProt Q07011 24-255); test: flow cytometry on transfected HEK293T-17 cells
T3 construct: also called shuffle construct 5; shuffle 5/elephant
T3 chain: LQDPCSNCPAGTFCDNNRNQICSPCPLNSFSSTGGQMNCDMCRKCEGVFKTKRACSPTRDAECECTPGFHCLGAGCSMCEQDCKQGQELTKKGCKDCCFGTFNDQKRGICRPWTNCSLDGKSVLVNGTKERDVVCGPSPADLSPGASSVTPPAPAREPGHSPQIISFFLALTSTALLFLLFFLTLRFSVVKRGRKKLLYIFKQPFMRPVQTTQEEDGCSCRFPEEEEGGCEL

[6] = biological target: T4, Wild boar CD137 (wild boar (Sus scrofa)); test: flow cytometry on transfected HEK293T-17 cells
T4 construct: Amino acids 1-23 are stated to be a predicted signal peptide; Expressed on HEK293T-17 cells; also called Sus scrofa CD137
T4 chain: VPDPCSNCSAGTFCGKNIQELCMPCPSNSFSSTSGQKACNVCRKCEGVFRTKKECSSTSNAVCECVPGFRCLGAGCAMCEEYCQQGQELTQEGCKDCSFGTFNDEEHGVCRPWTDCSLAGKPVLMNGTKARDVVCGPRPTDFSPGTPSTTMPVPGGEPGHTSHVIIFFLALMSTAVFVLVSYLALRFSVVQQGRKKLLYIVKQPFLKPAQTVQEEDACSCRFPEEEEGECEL

[7] = biological target: T1, Human CD137; test: flow cytometry on FreeStyle HEK293 cells expressing CD137 (alanine scanning), 3 µg/mL A488-labeled antibody
[8] = biological target: T5, Human PD-L1 (human, UniProt Q9NZQ7 19-290); test: flow cytometry on MDA-MB-231 tumor cells
T5 construct: Amino acids 1-18 are stated to be a predicted signal peptide; also called CD274; B7H1
T5 sequence (Q9NZQ7 19-290): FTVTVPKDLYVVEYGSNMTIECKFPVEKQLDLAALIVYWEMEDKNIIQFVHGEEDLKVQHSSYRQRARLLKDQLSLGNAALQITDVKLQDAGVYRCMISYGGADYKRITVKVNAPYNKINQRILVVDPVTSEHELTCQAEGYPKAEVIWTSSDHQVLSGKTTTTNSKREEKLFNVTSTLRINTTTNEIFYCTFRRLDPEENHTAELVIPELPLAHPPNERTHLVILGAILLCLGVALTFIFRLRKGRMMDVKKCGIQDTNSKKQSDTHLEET

B1: PD-L1-547-FEAL×CD137-009-HC7LC2-FEAR (bispecific antibody, human IgG1, kappa, lambda)
heavy 1: EVQLLEPGGGLVQPGGSLRLSCEASGSTFSTYAMSWVRQAPGKGLEWVSGFSGSGGFTFYADSVRGRFTISRDSSKNTLFLQMSSLRAEDTAVYYCAIPARGYNYGSFQHWGQGTLVTVSSASTKGPSVFPLAPSSKSTSGGTAALGCLVKDYFPEPVTVSWNSGALTSGVHTFPAVLQSSGLYSLSSVVTVPSSSLGTQTYICNVNHKPSNTKVDKRVEPKSCDKTHTCPPCPAPEFEGGPSVFLFPPKPKDTLMISRTPEVTCVVVAVSHEDPEVKFNWYVDGVEVHNAKTKPREEQYNSTYRVVSVLTVLHQDWLNGKEYKCKVSNKALPAPIEKTISKAKGQPREPQVYTLPPSREEMTKNQVSLTCLVKGFYPSDIAVEWESNGQPENNYKTTPPVLDSDGSFLLYSKLTVDKSRWQQGNVFSCSVMHEALHNHYTQKSLSLSPGK
light 1: SYVLTQPPSVSVAPGQTARITCGGNNIGSKSVHWYQQKPGQAPVLVVYDDNDRPSGLPERFSGSNSGNTATLTISRVEAGDEADYYCQVWDSSSDHVVFGGGTKLTVLGQPKAAPSVTLFPPSSEELQANKATLVCLISDFYPGAVTVAWKADSSPVKAGVETTTPSKQSNNKYAASSYLSLTPEQWKSHRSYSCQVTHEGSTVEKTVAPTECS
heavy 2: EVQLVESGGGLVQPGRSLRLSCTASGFSLNDYWMSWVRQAPGKGLEWVGYIDVGGSLYYAASVKGRFTISRDDSKSIAYLQMNSLKTEDTAVYYCARGGLTYGFDLWGQGTLVTVSSASTKGPSVFPLAPSSKSTSGGTAALGCLVKDYFPEPVTVSWNSGALTSGVHTFPAVLQSSGLYSLSSVVTVPSSSLGTQTYICNVNHKPSNTKVDKRVEPKSCDKTHTCPPCPAPEFEGGPSVFLFPPKPKDTLMISRTPEVTCVVVAVSHEDPEVKFNWYVDGVEVHNAKTKPREEQYNSTYRVVSVLTVLHQDWLNGKEYKCKVSNKALPAPIEKTISKAKGQPREPQVYTLPPSREEMTKNQVSLTCLVKGFYPSDIAVEWESNGQPENNYKTTPPVLDSDGSFFLYSRLTVDKSRWQQGNVFSCSVMHEALHNHYTQKSLSLSPGK
light 2: DIVMTQSPSSLSASVGDRVTITCQASEDISSYLAWYQQKPGKAPKRLIYGASDLASGVPSRFSASGSGTDYTFTISSLQPEDIATYYCHYYATISGLGVAFGGGTKVEIKRTVAAPSVFIFPPSDEQLKSGTASVVCLLNNFYPREAKVQWKVDNALQSGNSQESVTEQDSKDSTYSLSSTLTLSKADYEKHKVYACEVTHQGLSSPVTKSFNRGEC
EC50 value, CD8+ T-cell expansion, donor 1, 0.03 µg/ml anti-CD3 [1]: 12.2 ng/mL
EC50 value, CD8+ T-cell expansion, donor 2, 0.09 µg/ml anti-CD3 [1]: 6.89 ng/mL

B2: CD137-009-FEAL×PD-L1-547-FEAR (bispecific antibody, human IgG1, kappa, lambda)
heavy 1: QSLEESGGRLVTPGTPLTLTCTVSGFSLNDYWMSWVRQAPGKGLEWIGYIDVGGSLYYASWAKGRFTISRTSTTVDLKMTSLTTEDTATYFCARGGLTYGFDLWGPGTLVTVSSASTKGPSVFPLAPSSKSTSGGTAALGCLVKDYFPEPVTVSWNSGALTSGVHTFPAVLQSSGLYSLSSVVTVPSSSLGTQTYICNVNHKPSNTKVDKRVEPKSCDKTHTCPPCPAPEFEGGPSVFLFPPKPKDTLMISRTPEVTCVVVAVSHEDPEVKFNWYVDGVEVHNAKTKPREEQYNSTYRVVSVLTVLHQDWLNGKEYKCKVSNKALPAPIEKTISKAKGQPREPQVYTLPPSREEMTKNQVSLTCLVKGFYPSDIAVEWESNGQPENNYKTTPPVLDSDGSFLLYSKLTVDKSRWQQGNVFSCSVMHEALHNHYTQKSLSLSPGK
light 1: DIVMTQTPASVSEPVGGTVTINCQASEDISSYLAWYQQKPGQRPKRLIYGASDLASGVPSRFSASGSGTEYALTISDLESADAATYYCHYYATISGLGVAFGGGTEVVVKRTVAAPSVFIFPPSDEQLKSGTASVVCLLNNFYPREAKVQWKVDNALQSGNSQESVTEQDSKDSTYSLSSTLTLSKADYEKHKVYACEVTHQGLSSPVTKSFNRGEC
heavy 2: B1 heavy 1 with L409F, K413R
light 2: B1 light 1
EC50 of the induction of antigen-specific T cell proliferation, '% divided cells' [2]: 3.49 ng/mL
EC50 of the induction of antigen-specific T cell proliferation, 'proliferation index' [2]: 5.39 ng/mL

B3: CD137-009 (antibody, human IgG1, kappa, V domains shown)
VH: QSLEESGGRLVTPGTPLTLTCTVSGFSLNDYWMSWVRQAPGKGLEWIGYIDVGGSLYYASWAKGRFTISRTSTTVDLKMTSLTTEDTATYFCARGGLTYGFDLWGPGTLVTVSS
VL: DIVMTQTPASVSEPVGGTVTINCQASEDISSYLAWYQQKPGQRPKRLIYGASDLASGVPSRFSASGSGTEYALTISDLESADAATYYCHYYATISGLGVAFGGGTEVVVKR
notes: Rabbit variable regions on human IgG1; also called chimeric CD137 antibody; rabbit anti-CD137-009
binding result [3]: binds
binding result [4]: no binding (tested: 1 µg/mL)
binding result [5]: no binding (tested: 1 µg/mL)
binding result [6]: no binding (tested: 1 µg/mL)

B4: b12-FEAL×CD137-009-FEAR-A488 (bispecific antibody, not shown: large carriers)
heavy 1: QVQLVQSGAEVKKPGASVKVSCQASGYRFSNFVIHWVRQAPGQRFEWMGWINPYNGNKEFSAKFQDRVTFTADTSANTAYMELRSLRSADTAVYYCARVGPYSWDDSPQDNYYMDVWGKGTTVIVSSASTKGPSVFPLAPSSKSTSGGTAALGCLVKDYFPEPVTVSWNSGALTSGVHTFPAVLQSSGLYSLSSVVTVPSSSLGTQTYICNVNHKPSNTKVDKRVEPKSCDKTHTCPPCPAPEFEGGPSVFLFPPKPKDTLMISRTPEVTCVVVAVSHEDPEVKFNWYVDGVEVHNAKTKPREEQYNSTYRVVSVLTVLHQDWLNGKEYKCKVSNKALPAPIEKTISKAKGQPREPQVYTLPPSREEMTKNQVSLTCLVKGFYPSDIAVEWESNGQPENNYKTTPPVLDSDGSFLLYSKLTVDKSRWQQGNVFSCSVMHEALHNHYTQKSLSLSPGK
light 1: EIVLTQSPGTLSLSPGERATFSCRSSHSIRSRRVAWYQHKPGQAPRLVIHGVSNRASGISDRFSGSGSGTDFTLTITRVEPEDFALYYCQVYGASSYTFGQGTKLERK
heavy 2: B2 heavy 1 with L402F, K406R
light 2: B2 light 1
binding result [7]: binds

B5: b12-FEAL×PD-L1-547-FEAR (bispecific antibody, not shown: large carriers)
heavy 1: B4 heavy 1
light 1: B4 light 1
heavy 2: B1 heavy 1 with L409F, K413R
light 2: B1 light 1
notes: also called monovalent PD-L1 antibody; monovalent PD-L1-control antibody
binding result [8]: binds

B6: PD-L1-547-FEAR (antibody, human IgG1, lambda, V domains shown)
VH: EVQLLEPGGGLVQPGGSLRLSCEASGSTFSTYAMSWVRQAPGKGLEWVSGFSGSGGFTFYADSVRGRFTISRDSSKNTLFLQMSSLRAEDTAVYYCAIPARGYNYGSFQHWGQGTLVTVSS
VL: SYVLTQPPSVSVAPGQTARITCGGNNIGSKSVHWYQQKPGQAPVLVVYDDNDRPSGLPERFSGSNSGNTATLTISRVEAGDEADYYCQVWDSSSDHVVFGGGTKLTVLG
notes: Human IgG1 lambda with L234F, L235E, D265A and K409R
binding result [8]: binds

B7: CD137-005-FEAR-A488 (antibody, V domains shown)
VH: QSVEESGGRLVTPGTPLTLTCTASGFTISDFHVTWVRQAPGKGLEWIGTIITSASTTAYATWARGRFTISKSSTTVNLKIVSPTTEDTATYFCARSTYTDTSGYYFDFWGQGTLVTVSS
VL: AQVLTQTASPVSAAVGGTVIINCQSSQSIYNGNRLSWYQQKPGQPPKLLIYSASTLASGVSSRFKGSGSGTQFTLAISDVQSDDAATYYCLGSYDCDSADCFAFGGGTEVVVER
notes: Conjugated with Alexa Fluor 488
binding result [7]: binds
